Assay results: the supplement of paper PMC7877785
± gives the uncertainty stated by the source.

Test: self-splicing fitness, log relative to wild type (ln ratio); higher = more splicing; Tetrahymena group I intron in knt gene, E. coli kanamycin selection, DiMSum; sequences stand for … in CUCUCU…GGAGGGAAAAGUUAUCAGGCAUGCACCUGGUAGCUAGUCUUUAAACCAAUAGAUUGCAUCGGUUUAAAAGGCAAGACCGUCAAAUUGCGGGAAAGGGGUCAACAGCCGUUCAGUACCAAGUCUCAGGGGAAACUUUGAGAUGGCCUUGCAAAGGGUAUGGUAAUAAGCUGACGGACAUGGUCCUAACCACGCAGCCAAGUCCUAAGUCAACAGAUCUUCUGUUGAUAUGGAUGCAGUUCACAGACUAAAUGUCGGUCGGGGAAGAUGUAUUCUUCUCAUAAGAUAUAGUCGGACCUCUCCUUAAUGGGAGCUAGCGGAUGAAGUGAUGCAACACUGGAGCCGCUGGGAACUAAUUUGUAUGCGAAAGUAUAUUGAUUAGUUUUGGAGUACUCGUGGUCG
Method in brief: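 The eight P1ex-region nucleotides of an intron in the knt kanamycin-resistance gene on pET-22b(+) were all randomised and the library put into E. coli BL21(DE3). Six replicate transformations were grown overnight at 37°C or 30°C on LB agar with or without 25 μg/mL kanamycin, together with 100 μg/mL carbenicillin, 50 μM IPTG and 0.2% rhamnose. Colonies were pooled and amplicon-sequenced on an Illumina HiSeq 2500. Fitness from DiMSum is the error-weighted combination of wild-type-normalised replicate fold changes, kanamycin over none.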

| Sequence | self-splicing fitness (ln) (30 °C) | self-splicing fitness (ln) (37 °C) |
| --- | --- | --- |
| GAUUAGCAAUAUUACGAACG | -1.09 ± 0.12 | 0.232 ± 0.13 |
| GAUUAGCAAUAUUACGAAGC | -2.4 ± 0.21 | -2.28 ± 0.21 |
| GAUUAGCAAUAUUACGAAUG | -0.837 ± 0.14 | -0.649 ± 0.16 |
| GAUUAGCAAUAUUACGAAUU | -2.56 ± 0.3 | -2.95 ± 0.47 |
| GAUUAGCAAUAUUACGACCG | -1.44 ± 0.14 | 0.0909 ± 0.18 |
| GAUUAGCAAUAUUACGACUA | -0.765 ± 0.17 | 0.0117 ± 0.13 |
| GAUUAGCAAUAUUACGAUAU | -1.19 ± 0.11 | -0.869 ± 0.13 |
| GAUUAGCAAUAUUACGCCGU | -1.61 ± 0.15 | -0.986 ± 0.25 |
| GAUUAGCAAUAUUACGCCUG | -1.56 ± 0.2 | -0.102 ± 0.19 |
| GAUUAGCAAUAUUACGCGAG | -2.28 ± 0.17 | -0.865 ± 0.12 |
| GAUUAGCAAUAUUACGCGUC | -4.09 ± 0.47 | -2.01 ± 0.3 |
| GAUUAGCAAUAUUACGCUAC | -3.62 ± 0.42 | -1.48 ± 0.29 |
| GAUUAGCAAUAUUACGCUGU | -2.84 ± 0.28 | -1.74 ± 0.31 |
| GAUUAGCAAUAUUACGGAGC | -3.23 ± 0.17 | -1.23 ± 0.13 |
| GAUUAGCAAUAUUACGGGAG | -2.81 ± 0.24 | -2.8 ± 0.38 |
| GAUUAGCAAUAUUACGGUCA | -1.38 ± 0.15 | -1.2 ± 0.12 |
| GAUUAGCAAUAUUACGGUGU | -2.74 ± 0.09 | -0.798 ± 0.083 |
| GAUUAGCAAUAUUACGUACG | -1.1 ± 0.13 | 0.136 ± 0.15 |
| GAUUAGCAAUAUUACGUCCU | -1.08 ± 0.14 | -0.47 ± 0.18 |
| GAUUAGCAAUAUUACGUGUC | -2.86 ± 0.27 | -2.28 ± 0.26 |
| GAUUAGCAAUAUUACGUUAA | -1.94 ± 0.32 | -1.98 ± 0.3 |
| GAUUAGCAAUAUUACGUUCA | -0.941 ± 0.084 | -0.497 ± 0.088 |
| GAUUAGCAAUAUUACGUUCU | -2.91 ± 0.11 | -2.07 ± 0.1 |
| GAUUAGCAAUAUUACGUUGC | – | -1.94 ± 0.26 |
| GCAAAGCAAUAUUACGAAAA | -1.98 ± 0.2 | -1.84 ± 0.24 |

| Sequence | self-splicing fitness (ln) (30 °C) | self-splicing fitness (ln) (37 °C) |
| --- | --- | --- |
| GCAAAGCAAUAUUACGAACU | -0.569 ± 0.094 | -0.26 ± 0.13 |
| GCAAAGCAAUAUUACGAAUC | -1.68 ± 0.12 | -0.115 ± 0.13 |
| GCAAAGCAAUAUUACGAGGG | -3.02 ± 0.11 | -1.55 ± 0.1 |
| GCAAAGCAAUAUUACGAUAG | -2.23 ± 0.11 | -0.989 ± 0.12 |
| GCAAAGCAAUAUUACGAUGG | -1.02 ± 0.099 | -0.442 ± 0.13 |
| GCAAAGCAAUAUUACGCAUU | -2.78 ± 0.12 | -1.7 ± 0.14 |
| GCAAAGCAAUAUUACGCCAC | -3.15 ± 0.27 | -1.93 ± 0.19 |
| GCAAAGCAAUAUUACGCGAG | -2.18 ± 0.28 | -1.11 ± 0.18 |
| GCAAAGCAAUAUUACGCUCA | -0.972 ± 0.13 | -0.0384 ± 0.16 |
| GCAAAGCAAUAUUACGCUGC | -3.72 ± 0.42 | – |
| GCAAAGCAAUAUUACGCUGU | -3.42 ± 0.26 | -2.84 ± 0.31 |
| GCAAAGCAAUAUUACGGAAG | -1.96 ± 0.14 | -0.343 ± 0.16 |
| GCAAAGCAAUAUUACGGACA | -0.517 ± 0.18 | -0.839 ± 0.14 |
| GCAAAGCAAUAUUACGGACC | -0.898 ± 0.092 | 0.746 ± 0.13 |
| GCAAAGCAAUAUUACGGACU | -0.621 ± 0.047 | 0.0957 ± 0.075 |
| GCAAAGCAAUAUUACGGAGG | -1.9 ± 0.1 | -1.62 ± 0.14 |
| GCAAAGCAAUAUUACGGAUG | -2.52 ± 0.12 | -1.74 ± 0.13 |
| GCAAAGCAAUAUUACGGCGC | -2.1 ± 0.19 | -0.824 ± 0.2 |
| GCAAAGCAAUAUUACGGCGU | -1.78 ± 0.1 | -0.692 ± 0.12 |
| GCAAAGCAAUAUUACGGUCG | -1.62 ± 0.089 | -0.369 ± 0.11 |
| GCAAAGCAAUAUUACGUCGC | -1.48 ± 0.16 | -2.45 ± 0.27 |
| GCACAGCAAUAUUACGAAGA | -1.41 ± 0.14 | -1.4 ± 0.18 |
| GCACAGCAAUAUUACGACCG | -1.14 ± 0.098 | 0.0916 ± 0.15 |
| GCACAGCAAUAUUACGCACA | -1.09 ± 0.092 | -0.164 ± 0.1 |
| GCACAGCAAUAUUACGCACU | -0.263 ± 0.06 | 0.324 ± 0.077 |

| Sequence | self-splicing fitness (ln) (30 °C) | self-splicing fitness (ln) (37 °C) |
| --- | --- | --- |
| GCACAGCAAUAUUACGCCAG | -1.99 ± 0.25 | -2.06 ± 0.26 |
| GCACAGCAAUAUUACGCCCC | -0.949 ± 0.12 | -0.0642 ± 0.15 |
| GCACAGCAAUAUUACGCGCG | -1.05 ± 0.066 | -0.445 ± 0.075 |
| GCACAGCAAUAUUACGCUCU | -0.938 ± 0.091 | -0.131 ± 0.1 |
| GCACAGCAAUAUUACGCUGA | -2.36 ± 0.13 | -0.362 ± 0.088 |
| GCACAGCAAUAUUACGGAAA | -2.39 ± 0.2 | 0.239 ± 0.16 |
| GCACAGCAAUAUUACGGACC | -1.43 ± 0.11 | 0.156 ± 0.14 |
| GCACAGCAAUAUUACGGCAG | -3.39 ± 0.2 | -1.4 ± 0.16 |
| GCACAGCAAUAUUACGGGCC | – | -1.7 ± 0.21 |
| GCACAGCAAUAUUACGGGCU | -3.81 ± 0.24 | -1.77 ± 0.12 |
| GCACAGCAAUAUUACGGGUU | -1.17 ± 0.041 | -0.667 ± 0.055 |
| GCACAGCAAUAUUACGGUGU | -3.58 ± 0.14 | -3.45 ± 0.29 |
| GCACAGCAAUAUUACGUAAA | -0.808 ± 0.057 | 0.219 ± 0.077 |
| GCACAGCAAUAUUACGUAGC | -2.19 ± 0.089 | -1.64 ± 0.12 |
| GCACAGCAAUAUUACGUCAG | -2.44 ± 0.12 | -2.48 ± 0.21 |
| GCACAGCAAUAUUACGUCGA | -0.827 ± 0.05 | -0.258 ± 0.062 |
| GCACAGCAAUAUUACGUGCC | -5.1 ± 0.29 | – |
| GCACAGCAAUAUUACGUGCG | -2.65 ± 0.066 | -1.12 ± 0.066 |
| GCACAGCAAUAUUACGUUUC | -1.61 ± 0.063 | -0.982 ± 0.084 |
| GCAGAGCAAUAUUACGAAUU | -3.99 ± 0.42 | -2.05 ± 0.37 |
| GCAGAGCAAUAUUACGACGA | -2.64 ± 0.24 | -0.208 ± 0.12 |
| GCAGAGCAAUAUUACGAUCG | – | -1.33 ± 0.34 |
| GCAGAGCAAUAUUACGCACU | – | -3.43 ± 0.43 |
| GCAGAGCAAUAUUACGCAUA | -3.11 ± 0.22 | -2.89 ± 0.24 |
| GCAGAGCAAUAUUACGCCAA | -2.73 ± 0.38 | -2.72 ± 0.44 |

| Sequence | self-splicing fitness (ln) (30 °C) | self-splicing fitness (ln) (37 °C) |
| --- | --- | --- |
| GCAGAGCAAUAUUACGCUAU | -2.9 ± 0.33 | -1.32 ± 0.28 |
| GCAGAGCAAUAUUACGCUCU | -3.93 ± 0.44 | – |
| GCAGAGCAAUAUUACGGACC | -3.65 ± 0.37 | -0.0809 ± 0.29 |
| GCAGAGCAAUAUUACGGACG | – | -2.96 ± 0.29 |
| GCAGAGCAAUAUUACGGAUU | -3.62 ± 0.3 | – |
| GCAGAGCAAUAUUACGGCGA | -2.12 ± 0.11 | -1.55 ± 0.11 |
| GCAGAGCAAUAUUACGGCGC | -2.3 ± 0.23 | -1.28 ± 0.41 |
| GCAGAGCAAUAUUACGGGAG | -2.81 ± 0.21 | -2.81 ± 0.32 |
| GCAGAGCAAUAUUACGGGCA | -2.97 ± 0.17 | -1.67 ± 0.15 |
| GCAGAGCAAUAUUACGGGGA | -3.65 ± 0.37 | -2.84 ± 0.36 |
| GCAGAGCAAUAUUACGGUCA | -0.893 ± 0.21 | -0.283 ± 0.14 |
| GCAGAGCAAUAUUACGGUGA | -2.68 ± 0.22 | -2.53 ± 0.24 |
| GCAGAGCAAUAUUACGUAGA | -2.99 ± 0.15 | -1.78 ± 0.14 |
| GCAGAGCAAUAUUACGUCCU | -3.22 ± 0.42 | -0.41 ± 0.27 |
| GCAGAGCAAUAUUACGUCGU | -2.88 ± 0.18 | -0.722 ± 0.16 |
| GCAGAGCAAUAUUACGUGCC | -3.66 ± 0.3 | -2.94 ± 0.3 |
| GCAGAGCAAUAUUACGUGCG | -2.76 ± 0.096 | -0.667 ± 0.1 |
| GCAGAGCAAUAUUACGUGUC | -4.24 ± 0.26 | -2.16 ± 0.21 |
| GCAGAGCAAUAUUACGUUGG | -2.91 ± 0.18 | -1.09 ± 0.19 |
| GCAUAGCAAUAUUACGAAAC | -2.18 ± 0.12 | -0.684 ± 0.1 |
| GCAUAGCAAUAUUACGAAUG | -2.33 ± 0.096 | -1.85 ± 0.12 |
| GCAUAGCAAUAUUACGACCG | -0.896 ± 0.17 | 0.516 ± 0.14 |
| GCAUAGCAAUAUUACGACGA | -1.06 ± 0.14 | -0.364 ± 0.14 |
